Laboratory results from article PMC12077092, “A novel micronemal protein MP38 is involved in the invasion of merozoites into erythrocytes” (mBio, 2025).
Values joined by “and” are separate entries in the source; they are usually repeats but may differ in a detail not shown here. Equal values may be shown once.

Columns and labels:
[1] = target: Pv41 full-length ectodomain, human IgG1-Fc-tagged (Plasmodium vivax); assay: BLI; Gator system, anti-human IgG Fc (HFC) probes; Fc-tagged protein immobilised (10 uM, 120 s); His-tagged protein 1.5 to 100 uM, 300 s association, 600 s dissociation in PBS; 1:1 global fit
[2] = target: Pv12 full-length ectodomain, His-tagged (Plasmodium vivax); assay: native gel or EMSA; blue native PAGE, 4%-16%, purified His-tagged recombinant protein, Coomassie stain
[3] = target: Pv12 full-length ectodomain, human IgG1-Fc-tagged (Plasmodium vivax); assay: BLI; Gator system, anti-human IgG Fc (HFC) probes; Fc-tagged protein immobilised (10 uM, 120 s); His-tagged protein 1.5 to 100 uM, 300 s association, 600 s dissociation in PBS; 1:1 global fit
[4] = target: Pv41 full-length ectodomain, His-tagged (Plasmodium vivax); assay: native gel or EMSA; blue native PAGE, 4%-16%, purified His-tagged recombinant protein, Coomassie stain
[5] = target: Pk12-Fc (PKNH_1137300, ectodomain F24-S344, human IgG1 Fc fusion) (Plasmodium knowlesi); assay: BLI; Gator system, anti-human IgG Fc (HFC) probes; Fc-tagged protein immobilised (10 µM, 120 s); His-tagged protein in serial dilution (1.5 to 100 µM by the methods; 1.5625-100 nM in the key of Fig. S3C), association 300 s, dissociation 600 s in PBS; 1:1 global fit; two experiments with different batches of protein
[6] = target: Pv12-Fc (PVX_113775, ectodomain F24-A339, human IgG1 Fc fusion) (Plasmodium vivax) (UniProt A5K1W7); assay: as above
[7] = target: Pv41-Fc (PVX_000995, ectodomain E22-E384, human IgG1 Fc fusion) (Plasmodium vivax) (UniProt A5KAP6); assay: as above
[8] = target: T1, PvDBP-RII (194-521 aa.)-8His (Plasmodium vivax, UniProt P22290 194-521); assay: as above; settings: both partners purified
T1 construct: also called PvDBPII-His; PvDBP-RII-His; source: HEK293-EBNA1 cells, transiently transfected, purified from culture supernatant (Ni-NTA); not shown: 8xHis, C-terminal, kept

[9] = target: T2, P. vivax Duffy-binding protein region II, His-tagged (194-521 aa) (Plasmodium vivax, UniProt P22290 194-521); assay: BLI; Gator system, anti-human IgG Fc (HFC) probes; Fc-tagged protein immobilised (10 uM, 120 s); His-tagged protein 1.5 to 100 uM, 300 s association, 600 s dissociation in PBS; 1:1 global fit; settings: both partners purified
T2 construct: also called PvDBPII-His; PvDBP-RII-His; source: HEK293-EBNA1 (HEK293E), transiently transfected, purified from culture supernatant (Ni-NTA); not shown: 8xHis, C-terminal, kept

For “Pv12 full-length ectodomain, His-tagged (domain or fragment)”, which Kd [1] is on record?
The Kd was 0.53 nM.

And the stoichiometry N [2]?
The stoichiometry N was 2.

How did the Kd [3] turn out when “Pv41 full-length ectodomain, His-tagged (domain or fragment)” was run?
Its Kd is 14.2 nM.

What about the stoichiometry N [4] of the same molecule?
Its stoichiometry N is 2.

How did the Kd [5] turn out when “Pv41-8His (PVX_000995, ectodomain E22-E384) (from UniProt A5KAP6 22-384) (domain or fragment)” was run?
The Kd was 19 nM and 11.4 nM.

What about the Kd [6] of the same molecule?
Its Kd is 12.2 nM and 16.1 nM.

What about the koff [6] of the same molecule?
Its koff is 0.000662 s⁻¹ and 0.000803 s⁻¹.

What about the kon [6] of the same molecule?
The kon was 54300 M⁻¹ s⁻¹ and 50000 M⁻¹ s⁻¹.

Which Kd [7] does the source give for “Pk12-8His (PKNH_1137300, ectodomain F24-S344) (domain or fragment)” here?
Its Kd is 184 nM and 160 nM.

And the koff [7]?
Its koff is 0.0485 s⁻¹ and 0.0454 s⁻¹.

What about the kon [7] of the same molecule?
The kon was 263000 M⁻¹ s⁻¹ and 284000 M⁻¹ s⁻¹.

What does the source list for “Pv12-8His (PVX_113775, ectodomain F24-A339) (from UniProt A5K1W7 24-339) (domain or fragment)”?
Kd [7]: 0.555 nM and 0.512 nM; koff [7]: 0.000174 s⁻¹ and 0.000156 s⁻¹; kon [7]: 314000 M⁻¹ s⁻¹ and 305000 M⁻¹ s⁻¹

With “PvMP38 (PVX_110945), full-length ectodomain, His-tagged (domain or fragment)” as the molecule, how does the Kd [3] read?
Its Kd is 2.46 nM.

How did the Kd [5] turn out when “PvMP38-8His (PVX_110945, full-length ectodomain D28-K343) (domain or fragment)” was run?
Its Kd is 0.833 nM and 0.96 nM.

What about the Kd [6] of the same molecule?
The Kd was 2.39 nM and 2.56 nM.

B1: hDARC-Fc (human DARC M1-P63, human IgG1 Fc fusion) (Fc fusion, UniProt Q16570-1 1-63, looked up)
chain: MGNCLHRAELSPSTENSSQLDFEDVWNSSYGVNDSFPDGDYGANLEAAAPCHSCNLLDDSALP
notes: Duffy antigen/receptor for chemokines (DARC), human, NP_002027, region expressed M1-P63; also called human DARC-Fc; source: HEK293-EBNA1 cells, transiently transfected, purified from culture supernatant (HiTrap Protein G HP)
How did the Kd [8] turn out when B1 was run?
The Kd was 3 nM and 2.39 nM.

B2: human DARC-Fc (1-63 aa) (Fc fusion, UniProt Q16570 1-63, looked up)
chain: B1 chain
notes: Duffy antigen/receptor for chemokines (DARC), human, residues 1-63; also called hDARC; source: HEK293-EBNA1 (HEK293E), transiently transfected, purified from culture supernatant (Protein G)
Which Kd [9] does the source give for B2 here?
The Kd was 2.7 ± 0.43 nM.
